Assay results as given in publication PMC4382335.

Legend:
[1] = biological target: papain from papaia latex (papaia (from papaia latex)) (UniProt P00784)
[2] = biological target: papain from papaia latex (papaia (from papaia latex)) (UniProt P00784); remark: listed apart in the source
[3] = biological target: papain from papaia latex (papaia (from papaia latex)) (UniProt P00784); remark: listed apart in the source
[4] = biological target: TcCYS4-His-tag, recombinant cystatin TcCYS4 from Theobroma cacao (Theobroma cacao); assay: SEC; as a2, samples treated in the range from 55 to 75°C for 10 min; 20 uM, 100 mM phosphate buffer pH 6, 150 mM NaCl, Superdex 75 5/150
[5] = biological target: TcCYS4-His-tag, recombinant cystatin TcCYS4 from Theobroma cacao (Theobroma cacao); assay: SEC; TcCYS4 at 20 uM in 100 mM phosphate buffer pH 6, 150 mM NaCl, treated at different temperatures for 10 min (all heat treatments), Superdex 75 5/150, LMW standards
[6] = biological target: papain from papaia latex (papaia (from papaia latex)) (UniProt P00784); remark: listed apart in the source
[7] = biological target: papain from papaia latex (papaia (from papaia latex)) (UniProt P00784); remark: listed apart in the source

Chain of UniProt P00784 (P00784 134-345): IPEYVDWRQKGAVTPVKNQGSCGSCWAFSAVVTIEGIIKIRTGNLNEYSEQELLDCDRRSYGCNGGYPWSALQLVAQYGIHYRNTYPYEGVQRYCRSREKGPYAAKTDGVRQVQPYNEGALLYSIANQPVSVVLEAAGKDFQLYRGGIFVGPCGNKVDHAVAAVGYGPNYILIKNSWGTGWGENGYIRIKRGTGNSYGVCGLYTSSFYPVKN

TcCYS4-His-tag, recombinant cystatin TcCYS4 from Theobroma cacao (natural protein)
papain inhibitory activity after treatment of the cystatin for 10 min at different temperatures up to 90°C; 70% of activity at 65°C [1]: > 100% | percentage of inhibition of papain at pH values of the reaction medium from 2 to 10.5 (20% at pH 3, 70% at pH 3.5, about 90% from pH 4 to 9, about 80% at pH 10.5) [2]: 90% | residual activity of papain with TcCYS4 treated at 65°C for 0 to 600 s (plateau after 300 s) [3]: 60% | stoichiometry N [4]: 3 | stoichiometry N [5]: 2

recombinant cystatin TcCYS2 from Theobroma cacao (natural protein)
papain inhibitory activity after treatment of the cystatin for 10 min at different temperatures up to 90°C; around 52% at 65°C [6]: 65%

recombinant cystatin TcCYS3 from Theobroma cacao (natural protein)
papain inhibition rate after treatment of the cystatin for 10 min at temperatures up to 90°C [7]: 100%
